Data as given in paper PMC5789848, “HTLV-1 Tax plugs and freezes UPF1 helicase leading to nonsense-mediated mRNA decay inhibition” (Nature Communications, 2018).

Legend:
Conditions in all cases: both partners purified
[1] = biological target: T1, GST-Tax_(CACA) (HTLV-1 Tax with C23 and C29 changed to alanine, N-terminal GST fusion) (HTLV-1, UniProt P03409 1-353, C23A | C29A); experiment: BLI; BLItz; GST-Tax covalently bound to an AR2G sensor; UPF1 His-HD proteins in running buffer (300 mM NaCl, 20 mM phosphate, 0.02% Tween 20, 0.1% albumin); 250 s association, 60 s dissociation
T1 construct: Tax protein of HTLV-1, 353 amino acids, double mutant of the zinc finger region; plasmid pGEX2T-Tax_(CACA) made from pGEX2T-TaxWT; also called GST-tagged Tax_(CACA); source: E. coli BL21-DE3, purified (glutathione magnetic beads); also in E. coli lysate (co-lysis with HisUPF1-HD bacteria); not shown: GST, N-terminal, kept

[2] = biological target: T2, UPF1 full-length (UPF1-FL; aa 1-1118) (human, UniProt Q92900-2 1-1118); experiment: pull-down; GST-Tax as bait on GST resin, purified UPF1 proteins as prey; extensive washes with 0.3 M NaCl (methods: binding buffer with 200 mM NaCl); SDS-PAGE, coomassie staining
T2 construct: Up-Frameshift Suppressor 1 Homolog (UPF1), human, aa 1-1118; printed length 1118 aa; source: E. coli BL21 DE3, purified (nickel and calmodulin resin)
T2 sequence (looked up): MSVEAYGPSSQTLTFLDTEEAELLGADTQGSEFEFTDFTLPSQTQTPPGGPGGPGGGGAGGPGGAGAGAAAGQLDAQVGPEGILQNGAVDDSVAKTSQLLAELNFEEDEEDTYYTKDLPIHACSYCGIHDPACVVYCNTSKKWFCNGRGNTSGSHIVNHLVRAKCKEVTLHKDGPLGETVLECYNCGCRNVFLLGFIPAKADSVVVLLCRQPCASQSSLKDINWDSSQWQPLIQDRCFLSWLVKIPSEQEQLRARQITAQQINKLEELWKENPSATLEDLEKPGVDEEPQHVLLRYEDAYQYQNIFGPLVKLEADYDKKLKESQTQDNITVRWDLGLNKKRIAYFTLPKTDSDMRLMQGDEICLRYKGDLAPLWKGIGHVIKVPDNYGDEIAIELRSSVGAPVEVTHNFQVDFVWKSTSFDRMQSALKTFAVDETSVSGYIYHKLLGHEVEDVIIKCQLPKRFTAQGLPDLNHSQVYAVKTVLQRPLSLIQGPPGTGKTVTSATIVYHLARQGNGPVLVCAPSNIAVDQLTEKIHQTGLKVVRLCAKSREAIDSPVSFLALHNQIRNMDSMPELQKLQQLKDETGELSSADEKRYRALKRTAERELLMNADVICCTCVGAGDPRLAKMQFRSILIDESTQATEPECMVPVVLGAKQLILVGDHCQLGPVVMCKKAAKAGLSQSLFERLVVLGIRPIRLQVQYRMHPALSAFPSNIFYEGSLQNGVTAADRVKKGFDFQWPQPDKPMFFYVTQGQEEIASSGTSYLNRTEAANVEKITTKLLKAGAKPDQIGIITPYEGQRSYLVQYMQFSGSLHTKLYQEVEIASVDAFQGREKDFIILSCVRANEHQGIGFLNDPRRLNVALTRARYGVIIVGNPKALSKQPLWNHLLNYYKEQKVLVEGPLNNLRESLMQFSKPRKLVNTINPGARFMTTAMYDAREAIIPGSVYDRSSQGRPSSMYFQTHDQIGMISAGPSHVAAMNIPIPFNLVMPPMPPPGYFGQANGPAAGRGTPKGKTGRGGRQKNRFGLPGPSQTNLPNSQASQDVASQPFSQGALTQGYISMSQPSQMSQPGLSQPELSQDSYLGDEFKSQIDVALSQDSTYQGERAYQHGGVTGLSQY

[3] = biological target: T3, UPF1 helicase core domain (UPF1-HD; aa 295-914), C-terminal hexahistidine (human, UniProt Q92900-2 295-914); experiment: as above
T3 construct: UPF1, human, helicase core domain (HD), aa 295-914; numbers count on: the 1118 aa form; for UPF1-HD only the C-terminal hexahistidine is named; also called UPF1-HD-His; HisUPF1-HD; source: E. coli BL21 DE3, purified (Ni-NTA); also in E. coli lysate (co-lysis with Tax-expressing bacteria); not shown: His6, C-terminal, kept
T3 sequence (looked up): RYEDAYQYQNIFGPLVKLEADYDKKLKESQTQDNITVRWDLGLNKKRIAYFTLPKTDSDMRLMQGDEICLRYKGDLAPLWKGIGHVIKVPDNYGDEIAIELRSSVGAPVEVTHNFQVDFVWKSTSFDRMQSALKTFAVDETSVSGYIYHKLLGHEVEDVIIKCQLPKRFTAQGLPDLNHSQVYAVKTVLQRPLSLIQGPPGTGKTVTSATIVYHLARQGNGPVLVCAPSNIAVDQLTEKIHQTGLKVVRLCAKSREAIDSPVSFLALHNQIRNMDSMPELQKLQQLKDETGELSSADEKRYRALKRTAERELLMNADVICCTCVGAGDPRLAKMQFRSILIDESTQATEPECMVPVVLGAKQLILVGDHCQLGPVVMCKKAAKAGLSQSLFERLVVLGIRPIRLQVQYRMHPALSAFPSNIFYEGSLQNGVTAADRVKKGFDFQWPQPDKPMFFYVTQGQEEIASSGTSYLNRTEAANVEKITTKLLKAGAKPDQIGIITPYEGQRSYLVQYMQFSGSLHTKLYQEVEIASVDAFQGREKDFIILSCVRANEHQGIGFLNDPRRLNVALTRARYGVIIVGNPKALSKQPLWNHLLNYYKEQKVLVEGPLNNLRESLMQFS

[4] = biological target: T4, UPF1-CH-HD (CH and HD domains of UPF1; aa 115-914) (human, UniProt Q92900-2 115-914); experiment: as above
T4 construct: UPF1, human, CH and helicase domains, aa 115-914; numbers count on: the 1118 aa form; Tags 'and/or' as printed; source: E. coli BL21 DE3, purified (nickel and calmodulin resin)
T4 sequence (looked up): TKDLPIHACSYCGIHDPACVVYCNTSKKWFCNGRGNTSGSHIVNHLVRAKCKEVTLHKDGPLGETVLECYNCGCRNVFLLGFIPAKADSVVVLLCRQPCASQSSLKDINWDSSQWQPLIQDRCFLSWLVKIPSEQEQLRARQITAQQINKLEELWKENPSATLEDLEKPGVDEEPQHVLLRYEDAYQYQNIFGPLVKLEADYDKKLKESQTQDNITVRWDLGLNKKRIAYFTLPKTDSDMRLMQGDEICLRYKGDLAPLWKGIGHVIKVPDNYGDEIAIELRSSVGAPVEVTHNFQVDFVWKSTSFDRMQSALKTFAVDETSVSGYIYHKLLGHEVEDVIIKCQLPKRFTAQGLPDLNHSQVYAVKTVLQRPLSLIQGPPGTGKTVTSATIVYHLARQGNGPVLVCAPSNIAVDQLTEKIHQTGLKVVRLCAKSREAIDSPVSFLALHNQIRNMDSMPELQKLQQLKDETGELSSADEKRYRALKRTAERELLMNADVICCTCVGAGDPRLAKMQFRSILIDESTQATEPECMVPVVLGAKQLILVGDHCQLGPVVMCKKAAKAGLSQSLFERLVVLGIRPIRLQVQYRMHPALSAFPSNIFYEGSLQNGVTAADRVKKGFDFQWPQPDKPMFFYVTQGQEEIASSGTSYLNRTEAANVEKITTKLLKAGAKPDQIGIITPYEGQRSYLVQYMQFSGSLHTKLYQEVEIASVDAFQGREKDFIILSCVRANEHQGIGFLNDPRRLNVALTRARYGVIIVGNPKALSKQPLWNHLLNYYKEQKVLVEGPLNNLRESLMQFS

[5] = biological target: T5, UPF1-HD-SQ (HD and SQ domains of UPF1; aa 295-1118) (human, UniProt Q92900-2 295-1118); experiment: as above
T5 construct: UPF1, human, helicase and SQ domains, aa 295-1118; numbers count on: the 1118 aa form; Tags 'and/or' as printed; source: E. coli BL21 DE3, purified (nickel and calmodulin resin)
T5 sequence (looked up): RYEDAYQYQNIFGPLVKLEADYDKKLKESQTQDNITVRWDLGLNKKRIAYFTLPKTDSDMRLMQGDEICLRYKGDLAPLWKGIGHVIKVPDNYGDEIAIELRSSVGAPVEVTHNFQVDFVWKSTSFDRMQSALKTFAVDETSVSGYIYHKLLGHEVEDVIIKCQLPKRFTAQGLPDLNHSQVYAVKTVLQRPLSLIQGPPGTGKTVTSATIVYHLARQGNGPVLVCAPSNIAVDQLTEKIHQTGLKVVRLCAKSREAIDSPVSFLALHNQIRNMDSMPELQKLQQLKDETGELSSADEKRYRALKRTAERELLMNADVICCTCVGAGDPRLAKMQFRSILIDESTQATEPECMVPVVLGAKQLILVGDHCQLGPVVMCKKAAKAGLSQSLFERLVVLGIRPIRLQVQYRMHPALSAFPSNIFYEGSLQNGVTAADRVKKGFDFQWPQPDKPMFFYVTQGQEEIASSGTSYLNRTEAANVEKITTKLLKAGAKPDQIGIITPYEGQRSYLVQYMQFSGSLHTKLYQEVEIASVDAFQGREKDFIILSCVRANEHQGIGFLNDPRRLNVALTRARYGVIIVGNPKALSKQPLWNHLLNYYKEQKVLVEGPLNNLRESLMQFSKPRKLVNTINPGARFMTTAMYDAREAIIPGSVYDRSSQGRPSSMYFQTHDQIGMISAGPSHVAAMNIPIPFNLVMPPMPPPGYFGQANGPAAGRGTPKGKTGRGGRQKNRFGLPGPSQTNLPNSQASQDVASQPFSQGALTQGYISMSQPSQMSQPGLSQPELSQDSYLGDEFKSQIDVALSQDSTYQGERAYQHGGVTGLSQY

B1: UPF1-HD_(DE636AA), histidine-tagged (domain or fragment)
chain: RYEDAYQYQNIFGPLVKLEADYDKKLKESQTQDNITVRWDLGLNKKRIAYFTLPKTDSDMRLMQGDEICLRYKGDLAPLWKGIGHVIKVPDNYGDEIAIELRSSVGAPVEVTHNFQVDFVWKSTSFDRMQSALKTFAVDETSVSGYIYHKLLGHEVEDVIIKCQLPKRFTAQGLPDLNHSQVYAVKTVLQRPLSLIQGPPGTGKTVTSATIVYHLARQGNGPVLVCAPSNIAVDQLTEKIHQTGLKVVRLCAKSREAIDSPVSFLALHNQIRNMDSMPELQKLQQLKDETGELSSADEKRYRALKRTAERELLMNADVICCTCVGAGDPRLAKMQFRSILIAASTQATEPECMVPVVLGAKQLILVGDHCQLGPVVMCKKAAKAGLSQSLFERLVVLGIRPIRLQVQYRMHPALSAFPSNIFYEGSLQNGVTAADRVKKGFDFQWPQPDKPMFFYVTQGQEEIASSGTSYLNRTEAANVEKITTKLLKAGAKPDQIGIITPYEGQRSYLVQYMQFSGSLHTKLYQEVEIASVDAFQGREKDFIILSCVRANEHQGIGFLNDPRRLNVALTRARYGVIIVGNPKALSKQPLWNHLLNYYKEQKVLVEGPLNNLRESLMQFS
notes: numbers count on: the 1118 aa form; also called UPF1-HD_(DE633AA); UPF1-HD_(DEAA); source: E. coli BL21 DE3, purified (Ni-NTA)
For B1, the “fold change of binding against WT” value [1] was roughly 1.8 times.

B2: UPF1-HD_(R843S), histidine-tagged (domain or fragment)
chain: RYEDAYQYQNIFGPLVKLEADYDKKLKESQTQDNITVRWDLGLNKKRIAYFTLPKTDSDMRLMQGDEICLRYKGDLAPLWKGIGHVIKVPDNYGDEIAIELRSSVGAPVEVTHNFQVDFVWKSTSFDRMQSALKTFAVDETSVSGYIYHKLLGHEVEDVIIKCQLPKRFTAQGLPDLNHSQVYAVKTVLQRPLSLIQGPPGTGKTVTSATIVYHLARQGNGPVLVCAPSNIAVDQLTEKIHQTGLKVVRLCAKSREAIDSPVSFLALHNQIRNMDSMPELQKLQQLKDETGELSSADEKRYRALKRTAERELLMNADVICCTCVGAGDPRLAKMQFRSILIDESTQATEPECMVPVVLGAKQLILVGDHCQLGPVVMCKKAAKAGLSQSLFERLVVLGIRPIRLQVQYRMHPALSAFPSNIFYEGSLQNGVTAADRVKKGFDFQWPQPDKPMFFYVTQGQEEIASSGTSYLNRTEAANVEKITTKLLKAGAKPDQIGIITPYEGQRSYLVQYMQFSGSLHTKLYQEVEIASVDAFQGREKDFIILSCVSANEHQGIGFLNDPRRLNVALTRARYGVIIVGNPKALSKQPLWNHLLNYYKEQKVLVEGPLNNLRESLMQFS
notes: UPF1, human, helicase core domain aa 295-914 (as UPF1-HD) with R843S; numbers count on: the 1118 aa form; source: E. coli, purified (as the other His-tagged UPF1 proteins)
In the case of B2, the “fold loss of affinity against WT” value [1] is reported as 4 times.

B3: GST-Tax (HTLV-1 Tax, wild type, N-terminal glutathione S-transferase fusion) (natural protein)
chain: not shown
notes: Tax protein of human T-cell lymphotropic virus type I (HTLV-1); also called TaxWT; HTLV-1 GST-Tax; source: E. coli BL21-DE3, purified (glutathione magnetic beads); also in E. coli lysate (co-lysis with HisUPF1-HD bacteria); not shown: GST, N-terminal, kept
B3: binds [2]; binds [3]; binds [4]. B3: binds [5].
